The record followed here is patent publication US20260193326A1.

The chains are these.
B1: A4-D5 (protein)
chain: VQLQESGGGLVQPGGSLRLSCVASGSSFSINTMGWYRRAPGKQRELVATVTRDGSTNYANSVKGRFTISRDNAKNTVYLQMNSLRPEDTAVYYCHVDEVRQSSWTTSNLWGQGTQVTVSSGGGGSGGGGSGGGGSVQLQESGGGLVQPGGSLRLSCVASGSSFSINTMGWYRRAPGKQRELVATVTRDGSTNYANSVKGRFTISRDNAKNTVYLQMNSLRPEDTAVYYCHVDEVRQSSWTTSNLWGQGTQVTVSSGGGGSGGGGSGGGGSVQLQESGGGLVQPGGSLRLSCVASGSSFSINTMGWYRQAPGKQRELVATVTRDGSTNYANSVKGRFTISRDNAKNTVYLQMNSLRPEDTAVYYCHVDEVRQSSWTTSNLWGQGTQVTVSSGGGGSGGGGSGGGGSVQLQESGGGLVQPGGSLRLSCVASGSSFSINTMGWYRRAPGKQRELVATVTRDGSTNYANSVKGRFTISRDNAKNTVYLQMNSLRPEDTAVYYCHVDEVRQSSWTTSNLWGQGTQVTVSS
B2: A4-D6 (bispecific antibody)
chain: VQLQESGGGLVQTGGSLRLSCAASGRAFSLNTMGWYRQAPGKWRELVATVTRGGSTNYAGSVKGRFTISRDNAKNTVYLQMNNLRPEDTAVYYCHVDEVRESSWTTSNLWGQGTQVTVSSGGGGSGGGGSGGGGSVQLQESGGGLVQTGGSLRLSCAASGRAFSLNTMGWYRQAPGKWRELVATVTRGGSTNYAGSVKGRFTISRDNAKNTVYLQMNNLRPEDTAVYYCHVDEVRESSWTTSNLWGQGTQVTVSSGGGGSGGGGSGGGGSVQLQESGGGLVQPGGSLRLSCAASGSIFTINSMGWYRQAPGKWRELVATVTRGGNTNYANSVKGRFTISRDNAKNTVYLQMNTLRPEDTAVYYCHLDEVRDSSWTTSNLWGQGTQVTVSSGGGGSGGGGSGGGGSVQLQESGGGLVQPGGSLRLSCAASGSIFSINSMGWYRQAPGKWRELVATVTRGGSTNYANSVKGRFTISRDNAKNTVYLQMNTLRPEDTAVYYCHLDEVRDSSWTTSNLWGQGTQVTVSS
B3: A4-D7 (bispecific antibody)
chain: VQLQESGGGLVQTGGSLRLSCAASGRAFSLNTMGWYRQAPGKWRELVATVTRGGSTNYAGSVKGRFTISRDNAKNTVYLQMNNLRPEDTAVYYCHVDEVRESSWTTSNLWGQGTQVTVSSGGGGSGGGGSGGGGSVQLQESGGGLVQPGGSLRLSCAASGSIFTINSMGWYRQAPGKWRELVATVTRGGNTNYANSVKGRFTISRDNAKNTVYLQMNTLRPEDTAVYYCHLDEVRDSSWTTSNLWGQGTQVTVSSGGGGSGGGGSGGGGSVQLQESGGGLVQPGGSLRLSCAASGSIFSINSMGWYRQAPGKWRELVATVTRGGSTNYANSVKGRFTISRDNAKNTVYLQMNTLRPEDTAVYYCHLDEVRDSSWTTSNLWGQGTQVTVSSGGGGSGGGGSGGGGSVQLQESGGGLVQTGGSLRLSCAASGRAFSLNTMGWYRQAPGKWRELVATVTRGGSTNYAGSVKGRFTISRDNAKNTVYLQMNNLRPEDTAVYYCHVDEVRESSWTTSNLWGQGTQVTVSS
B4: A4-D1 (VHH)
chain: VQLQESGGGLAQAGGSLRLSCAASGRGFSINTMGWYRQAPGKQRELVAAVTRGGTTNYADSVKGRFTISRDNAKNTVYLQMNSLRPEDTAVYYCHVDEVRQSSWTTSNLWGQGTQVTVSSGGGGSGGGGSGGGGSVQLQESGGGLAQAGGSLRLSCAASGRGFSINTMGWYRQAPGKQRELVAAVTRGGTTNYADSVKGRFTISRDNAKNTVYLQMNSLRPEDTAVYYCHVDEVRQSSWTTSNLWGQGTQVTVSSGGGGSGGGGSGGGGSVQLQESGGGLAQAGGSLRLSCAASGRGFSINTMGWYRQAPGKQRELVAAVTRGGTTNYADSVKGRFTISRDNAKNTVYLQMNSLRPEDTAVYYCHVDEVRQSSWTTSNLWGQGTQVTVSSGGGGSGGGGSGGGGSVQLQESGGGLAQAGGSLRLSCAASGRGFSINTMGWYRQAPGKQRELVAAVTRGGTTNYADSVKGRFTISRDNAKNTVYLQMNSLRPEDTAVYYCHVDEVRQSSWTTSNLWGQGTQVTVSS
B5: A4-D4 (VHH)
chain: B4 chain with A146V, A148P
B6: A4-D2 (VHH)
chain: B4 chain with A11V, A146V, A281V, A416V
B7: A4-D3 (VHH)
chain: B4 chain with A416V, A418P

Numbering of substitutions follows the chain as printed.

The target in the first assay is AAV8 (adeno-associated virus serotype 8). Description: SPR, AAV on CM5 chip. Background: In SPR one partner is held on a chip, and binding of the other changes the refractive index at the surface.
As for B1, the Kd (commonly a measure of binding affinity in units of concentration) was 0.0836 nM; the off-rate (koff) (as a rule, the first-order rate constant of dissociation) is 5e-06 s⁻¹; the kon – broadly, the second-order rate constant of association – was 59800 M⁻¹ s⁻¹.

B2: the Kd came to 1.02 nM, the off-rate (koff) came out at 1.63e-05 s⁻¹ and the kon was 16000 M⁻¹ s⁻¹.

As for B3, the Kd worked out at 1.41 nM, the koff was 1.79e-05 s⁻¹ and the kon stood at 12700 M⁻¹ s⁻¹.

B4 registered a Kd of 0.0543 nM, an off-rate (koff) of 1.81e-05 s⁻¹ and a kon of 334000 M⁻¹ s⁻¹.

As for B5, the Kd was determined as 0.0802 nM, the koff turned out to be 1.7e-06 s⁻¹ and the kon was found to be 21200 M⁻¹ s⁻¹.

In the case of B6, the equilibrium dissociation constant (Kd) amounted to 0.0821 nM, the koff came to 3.6e-06 s⁻¹ and the association rate constant (kon) amounted to 43900 M⁻¹ s⁻¹.

Consider B7, for which the Kd is 0.0363 nM, the koff is 1.5e-06 s⁻¹ and the association rate constant (kon) came out at 41400 M⁻¹ s⁻¹.

The target of another assay is AAV5 (adeno-associated virus serotype 5). Description: SPR, AAV on CM5 chip.
As to B1, the Kd was found to be 0.318 nM, the koff came out at 1.34e-05 s⁻¹ and the kon was 42100 M⁻¹ s⁻¹.

Molecule B2 yielded a Kd of 0.273 nM, a koff of 1.18e-05 s⁻¹ and a kon of 43300 M⁻¹ s⁻¹.

The molecule B3 yielded a Kd of 0.216 nM, a koff of 4.9e-06 s⁻¹ and a kon of 22700 M⁻¹ s⁻¹.

B4 gave a Kd of 0.0576 nM, a koff of 2.2e-06 s⁻¹ and a kon of 38200 M⁻¹ s⁻¹.

Regarding B5, the Kd stood at 0.657 nM, the koff came out at 1.73e-05 s⁻¹ and the kon turned out to be 26300 M⁻¹ s⁻¹.

Take B6: the Kd came out at 0.0996 nM, the koff came to 5.7e-06 s⁻¹ and the kon was 57200 M⁻¹ s⁻¹.

Take B7: the Kd came out at 0.209 nM, the koff was found to be 3.6e-06 s⁻¹ and the kon was found to be 17300 M⁻¹ s⁻¹.

The target of the next assay is AAV9 (adeno-associated virus serotype 9). Description: SPR, AAV on CM5 chip.
B1: the Kd was determined as 0.117 nM, the koff is 4.3e-06 s⁻¹ and the kon was 36900 M⁻¹ s⁻¹.

As for B2, the Kd is 0.155 nM, the koff worked out at 3.4e-06 s⁻¹ and the on-rate (kon) is 21900 M⁻¹ s⁻¹.

Take B3: the equilibrium dissociation constant (Kd) turned out to be 0.658 nM, the koff turned out to be 9.4e-06 s⁻¹ and the kon turned out to be 14300 M⁻¹ s⁻¹.

B4: the Kd came to 0.0533 nM, the koff came to 3.1e-06 s⁻¹ and the kon was found to be 58200 M⁻¹ s⁻¹.

In turn, B5 gave a Kd of 0.073 nM, a dissociation rate constant (koff) of 2.1e-06 s⁻¹ and a kon of 28800 M⁻¹ s⁻¹.

B6 came in with a Kd of 0.304 nM, a koff of 9e-06 s⁻¹ and a kon of 29600 M⁻¹ s⁻¹.

Take B7: the Kd amounted to 0.0707 nM, the koff came out at 3.2e-06 s⁻¹ and the kon is 45300 M⁻¹ s⁻¹.
